Test: soluble on expression in E. coli; label from the status in PepcDB or PDB records

Sequence	soluble on expression in E. coli
MSLRVADLLQHINLMKTSDSYGFKEEYESFFEGQSASWDVAKKDQNRAKNRYGNIIAYDHSRVILQPVEDDPSSDYINANYIDGYQRPSHYIATQGPVHETVYDFWRMIWQEQSACIVMVTNLVEVGRVKCYKYWPDDTEVYGDFKVTCVEMEPLAEYVVRTFTLERRGYNEIREVKQFHFTGWPDHGVPYHATGLLSFIRRVKLSNPPSAGPIVVHCSAGAGRTGCYIVIDIMLDMAEREGVVDIYNCVKALRSRRINMVQTEEQYIFIHDAILEACLCGETAIPVCEFKAAYFDMIRIDSQTNSSHLKDEFQTLNSVTPRLQAEDCSIACLPRNHDKNRFMDMLPPDRCLPFLITIDGESSNYINAALMDSYRQPAAFIVTQYPLPNTVKDFWRLVYDYGCTSIVMLNEVDLSQGCPQYWPEEGMLRYGPIQVECMSCSMDCDVINRIFRICNLTRPQEGYLMVQQFQYLGWASHREVPGSKRSFLKLILQVEKWQEECEEGEGRTIIHCLNGGGRSGMFCAIGIVVEMVKRQNVVDVFHAVKTLRNSKPNMVEAPEQYRFCYDVALEYLESSEGHHHHHH	soluble
QAGRFIGQEISGRLSSRSMLAVQIDDLLKLAARFVGEERARQSFIRFAYRQGKGFNPNQNADGEWIAHTERLLAGVLGASSTRAVVKAAIEGREMQLEDVVRIADEASEVLQFNRALLQGAIENITQGISVVDQSL	not soluble
MKILAISDPHGDYSKMKQIIEKAGDFDLAVVVGDITNFGPDEQVDELAEMFDKPVLAIPGNCDQKTILEALENSKAVNLHGKAEQIGKIRFIGLGGSNPTPFNTPFELSEEEIENALEGMVCSAENSGECGTIVLLTHAPPLGARDELPFGHVGSKAIQKFLDRVDLIVCGHIHEAKGSEKVGKTVVVNPGEACKGSCALIEIEETGNKPIEVEFVEVLEHHHHHH	not soluble
MTTATSTEPTLELQRLELAELINRHAGEPFGPASAIDDLYLVRYTENVRSVPTLAQPALCILAQGSKSLFLGDEQYAYDPLHYMVVSVTLPLSAVRLDASPENPSLGLRMDLDPAEISQLIAESGPMLVPNRPSGRGLYVERTDAALLDALLRLLRLLDTPRDIAMLAPLFRREILYRLLRGPQGYRLYEIALANSQTHRVCQAITWLNNNFQQPLRIEDLAREVNLSTSTLHHRFKAVTSMSPLQYQKQLRLQEARRLMLNDGLEAAVAAYRVGYESPSQFSREYSRLYGAPPIRDVARLRATAV	not soluble
MQNVLIVGVGFMGGSFAKSLRRSGFKGKIYGYDINPESISKAVDLGIIDEGTTSIAKVEDFSPDFVMLSSPVRTFREIAKKLSYILSEDATVTDQGSVKGKLVYDLENILGKRFVGGHPIAGTEKSGVEYSLDNLYEGKKVILTPTKKTDKKRLKLVKRVWEDVGGVVEYMSPELHDYVFGVVSHLPHAVAFALVDTLIHMSTPEVDLFKYPGGGFKDFTRIAKSDPIMWRDIFLENKENVMKAIEGFEKSLNHLKELIVREAEEELVEYLKEVKIKRMEI	soluble
MLITEIFHSIQGEGPYAGLPMLFVRTNVCNIRCEWCDTKYSFYGGKEIPLSELLGIVKEAKEGWVCFTGGEPLVQRDALAFVKSVVDMGKNVLIETNGTISIRNFVFSDRIFIDMDVKPPSAKVTKGFLMDNLRYLRKQDYLKIVIKDDTDLDFAIDFVDRYGEGLSFVFQPAWGSDIRRIADRIVGTGYNVRVLPQIHKIIYGDVPGV	not soluble
MGSDKIHHHHHHMWVRVPPPAPFSIFLSPGDDIVKRRKSTRTSSFGVKGRESHDSSPFYSRAIYSNFSLPKPSEEDLIENPLPENLLDKVIEGDAREVLKKIPDCSIHLMVTSPPYNVGKEYDEDMTLDEYLEFIEEIMKEVYRVLVWGGRACFNVANLGRKPYIPLHAYLIHLFEKIGFLIRGEIIWDKGEAVSGSSTAWGSWMSPVNPVLRDQHEYIIVMSKGDLKRRKPSDREAKSTITREEFLEFTRSVWKFPPESAKRVGHPAPFPEELPYRCIQLYTFKGDVVLDPFAGVGTTCVAAVKTGRHFVGIEINPEYVKKAEERVKDILSKPTLFEDHC	not soluble
MPVMDRAAMRTMATLQPSCMRWLCTTPSILDAAKAGWPISWAATPDSPATVTIRQFQASTCCRKKTFDVVVNTDVLEHVPEAELDCVLRDFRKLSTNAIIIPHLAKATRILPNGENAHCTIKTPSEWAQVFKRHYAHVYELPHHSAVHALFLCGDQERDVTALRGILEQYVAAKNEVRHHLLPLGKRIEKAIRLIRGKDINRLEHHHHHH	soluble
PNRSISPSALQDLLRTLKSPSSPQQQQQVLNILKSNPQLMAAFIKQRTAKYVANQPGMQ	soluble
MTPPPADDTSGKSGRRTELLDIAATLFAERGLRATTVRDIADAAGILSGSLYHHFDSKESMVDEILRGFLDDLFGKYREIVASGLDSRATLEALVTTSYEAIDASHSAVAIYQDEVKHLVANERFTYLSELNTEFRELWMGVLEAGVKDGSFRSDIDVELAFRFLRDTAWVAVRWYRPGGSVTVDTVAKQYLSIVLDGLASPHN	soluble
MGSDKIHHHHHHACDDYLDDVPKGQKIPKTWEDYNAFIRNNFSYHFLDPDQLAVLAGDIFKLPSAVTSPSLTRANYYADESVNRIDLMTGNDKNPYFNAYEGLFAWNLIVEDVPDATECTEVQRRQLIAQGRVLRAMHYFYLANFYADQYDEATKDKLSVPLITSASVEAPSPQVTLQTIYEFMLDDLNKAVEDLPVHSESILHPNRALGYGMLARVYLSVGDYDNALKNASLALEQNDQLFNWIDLYEADKERYDDPKNYTSGVAGNPETDNVENYIYCYGSSTSGWTGLNNTSYAISPERAARFEKGDTRLLTHWKSRVSSSGIPYYAGIYALEMNKGGMRSPEMYYIKAECLARKGGEANIREAMELVNKVRKTRILLEFYQDWTAATTKEAVEKIIRDKESEYIQTQVIYCDYRRLNKDPEYARTFPRTIEGKEYILKSDSHLWIMPFPREAVSNPGNGTITQNVEK	not soluble
MSYRYMRMILMFDMPTDTAEERKAYRKFRKFLLSEGFIMHQFSIYSKLLLNNTANNAMIGRLREHNPNKGNITLLTVTEKQFARMIYLHGERNNCIANSDERLVFLGEAFDES	not soluble
MLRLRTPSRIHITLIDLNGSIGRVDGGVGLALEEPHIEIKAKESETFVLKGEPINRERFEIAAAKMAEYCGRGAEIEVVSDYDAHVGLGSGTQISLAVGRAFSELYGLNLTTRQIAEIMGRGGTSGIGVAVFDHGGLVVDGGHSTKEKKSFLPSSASRAKPAPMIARLDFPDWNVVLAIPDLKGFFGEREVNLFQKSCPVPLEDVREICHLILMKMLPAVVEADLDEFGKALKRIQELGFKKAEVEQYGELIKGCFDLADCIGMSSTGPTVYAITDSNAGGIERSLRDYFAEKGYECRTIVTKARNRGVEIEV	not soluble
MGSDKIHHHHHHMSTDNLALNIREKAMEAGFDHCGIVKIDALADYVSRLEERAAAFPRSKPFYDFLSKLGTPQAAHEWGKSVIVCAMRYGKYRIPNRADRHIGKLYLYGGYRQPAYSQEYAGMAGFEAFLAAEGIRFAKDVFGIAPARLCAAQANLGVIRNNNFLYTEHGSWVWLETWLIDRELEYRESPNTLPSCPPGCSKCIDACPTGALKAPFLTDMGTCIARLTYSPSGEAPEPLRESMGTWLYGCDECQNACPMNKGRWEEKEEYPRLEELSRHISLEKIAEMDEHAVSDILSPMFWIIGKEKLWMWKCNVIRAMVNGKDPGHHSTIRKLCDDGNENVRRTAEWACRQLGI	not soluble
MGSDKIHHHHHHMQRARAEQRGRDLVIHLDRPLNQDHLETVSGGQGEFYVDFEVADPRKASVQQRRLFFALLHDIETYFVVPSEFLKSMFYTQYEFYTAGKSISLSDATESSVSDANTLLDLVIDFMFEWRVPFKKGYELLPKEEQYFIYQCCRHRVCIVCGEHADIHHVDVVGRTNRNKIDHSQRHVMALCRAHHSEIESIGSAKFAAKYHVPVTGIKLKIEDLQKLGIRGNYGGD	not soluble
AHHHHHHGSLVITPRRLHLGIIDPTGSLGRRFGSLGVALEGGYEIRITPADSLKIEAEKEDKETIKETIEKLNFEYDTGFGFYIEVRKSIPRHIGLGSTTQLTLGIAMGILKLLHKDVPVEEVAKILGRGKNSGVGIYAFKYGGFVVDGGVKDSVPPLLVRKDFPEDWAFLLVIPQVKRGFDEKEEQKIMEKPFGSASIAKEISYRILLGLLPALAEKNIEEFGRYLSTIQTLVGSSFSDFQGGEFREDIRLIVEFLNEITYGAGQSSWGPTVYGLIKRAEYQRVASRVAEFLDEQGIKAKIELGIPRNRGAEVKGESLFLERLIKSVSQ	soluble
MGHHHHHHSHMRLTLLCCTWREERMGEEGSELPVCASCGQRIYDGQYLQALNADWHADCFRCCDCSASLSHQYYEKDGQLFCKKDYWARYGESCHGCSEQITKGLVMVAGELKYHPECFICLTCGTFIGDGDTYTLVEHSKLYCGHCYYQTVVTPVIEQILPDSPGSHLPHTVTLVSIPASSHGKRGLSVSIDPPHGPPGCGTEHSHTVRVQGVDPGCMSPDVKNSIHVGDRILEINGTPIRNVPLDEIDLLIQETSRLLQLTLEHDPHDTLGHGLGPETSPLSSPAYTPSGEAGSSARQKPVLRSCSIDRSPGAGSLGSPASQRKDLGRSESLRVVCRPHRIFRPSDLIHGEVLGKGCFGQAIKVTHRETGEVMVMKELIRFDEETQRTFLKEVKVMRCLEHPNVLKFIGVLYKDKRLNFITEYIKGGTLRGIIKSMDSQYPWSQRVSFAKDIASGMAYLHSMNIIHRDLNSHNCLVRENKNVVVADFGLARLMVDEKTQPEGLRSL	soluble
MGKRKSKRKAPTKAKAVMPLDTQFNCPFCNHERVCEVKMDREKNVGYISCRVCSEDFQTNINYLSEPIDVYSDWVDACEQANNA	not soluble
MAMQAAKRANIRLPPEVNRILMIRNLPYKITAEEMYDIFGKYGPIRQIRVGNTPETRGTAYVVYEDIFDAKNACDHLSGFNVCNRYLVVLYYNANRAFQKMDTKKKEEQLKLLKEKYGINTDPPK	soluble
MEKSWYVVHTYSGYENKVKANLEKRVESMGMQDKIFRVVVPEEVEVEMKNGKEKLMKRKVFPGYVLVELIMTDDSWYVVRNTPGVTGFVGSSGSGSKPSPLLEEEVVTIMKHMGMDNEVVDFDFELHETVRVNEGPFADYTGAIEEIDVEKKKVSVLVDMFGRETPVELDFHQIEKL	soluble
MIPVTRMAVGKGTVSTRIKGLRGRRPSSFADILRPVVFWNITRACNLKCIHCYISAGPHPLPGELSTEEALGVARQLVEHGVPLVTLSGGEPLVRRDFWAIAKALSGHDTPKLALSSNGTLITRETAARLRRLGFSYVGISLDSVDPGVHDKFRGAPGAFKAAIRGARNALEEGLDVGFRLTITKYNLDDAPRIIRLASDMGVPRVAIYVVDLLGRATPDLAPSPEDLRRAIDAILEESVRHQDRVEVLLVRANFAGVYLADRLAKTRDEFLQLLSLVGSHGDCGRKSVSIYPDGTVRPCQFLEEVVIGDLRRQRLGEILSADNPLLKPFIAVDTMLRGPKCGGCPFKRVCGGGSRMRALKTTGEFWGDDPLCFIDPWSIARRWGYSAG	not soluble
MGSDKIHHHHHHMKVIIEADGGSRGNPGIAGSGTLIYNADRSQVLKEYSYVVGKATNNVAEYHGLLNGLRGAAELGATEVSVRMDSKLVVEQMSGRWKIKHPDMKELALECKKVASSIGSVSYEWIPRSENSHADALANKAMDALAEGAAVGFLELEEPAAKTDSEEKVVETATSPAVWNGATTQATRFVLLRHGQTAMSAARQYSGRSNPELTSVGLEQARRAAAFIGRRGGIDAIVASPLQRCQQTAHEVSEQLGGMPVRTIDGLIEMDFGQWDGLSFSQAHEADPELHSAWLDDSRTAPPGGESLQQVHRRVKKVREELERKYAGKTIVVVSHVTPIKSILRQALDASASMFHRMHLDLASISVAEFYSDGPTCVRSVNDTHYLYG	not soluble

Source: the DeepSol protein solubility set
